What was measured:
[1] = target: full-length α-synuclein (UniProt P37840); experiment: NMR titration; 1H-15N HSQC of 0.3 mM 15N-enriched FL- or CT-α-syn titrated with PDI (mole ratios 10:1 to 1:1, 0-300 μM PDI); 20 mM HEPES, 100 mM NaCl, 5 mM TCEP, pH 7.0, 10% D2O, 15 °C; KD from fits of the average CSPs of residues in segment 1 and in segment 2
[2] = target: Y39E-α-syn (UniProt P37840)

protein disulfide isomerase, P07237 18-508 (enzyme; other documents disagree on this pair)
KD of segment 1 [1]: 700 µM | KD of segment 2 [1]: 400 µM

protein disulfide isomerase (from UniProt P07237 18-508) (enzyme)
elongation rate constant (k) of aggregation of Y39E-α-syn with PDI, thioflavin T fluorescence (without PDI: ND, plateau was not reached) [2]: 0.21 | half-time (t1/2) of aggregation of Y39E-α-syn with PDI, thioflavin T fluorescence (without PDI: ND, plateau was not reached) [2]: 46 h | lag time (tlag) of aggregation of Y39E-α-syn with PDI, thioflavin T fluorescence (without PDI: ND, plateau was not reached) [2]: 36 h

— PMC9363494
